Measured values: publication PMC8111002 (Communications Biology, 2021)

Assays:
Stx2a A-subunit = Stx2a A-subunit (enterohemorrhagic Escherichia coli, UniProt P09385 23-319); assay: crystal structure; settings: both partners purified
crystal structure = biological target: the molecule itself; assay: crystal structure

B1: Stx2a B-subunit pentamer of the holotoxin (untagged) (natural protein)
chain: ADCAKGKIEFSKYNEDDTFTVKVDGKEYWTSRWNLQPLLQSAQLTGMTVTIKSSTCESGSGFAEVQFNND
**Q.** What does the source list for B1?
**A.** binding result (Stx2a A-subunit): binds; binding result (crystal structure): binds
